Results published in IntAct's records for PubMed 32296183.

B1: Golgi SNAP receptor complex member 2 (Homo sapiens), O14653 (parent)
chain: MDPLFQQTHKQVHEIQSCMGRLETADKQSVHIVENEIQASIDQIFSRLERLEILSSKEPPNKRQNARLRVDQLKYDVQHLQTALRNFQHRRHAREQQERQREELLSRTFTTNDSDTTIPMDESLQFNSSLQKVHNGMDDLILDGHNILDGLRTQRLTLKGTQKKILDIANMLGLSNTVMRLIEKRAFQDKYFMIGGMLLTCVVMFLVVQYLT
partner: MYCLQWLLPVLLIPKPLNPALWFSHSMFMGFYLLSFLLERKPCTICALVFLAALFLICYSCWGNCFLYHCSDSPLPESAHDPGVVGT
B2: Very-long-chain enoyl-CoA reductase (Homo sapiens), Q9NZ01 (parent)
chain: MKHYEVEILDAKTREKLCFLDKVEPHATIAEIKNLFTKTHPQWYPARQSLRLDPKGKSLKDEDVLQKLPVGTTATLYFRDLGAQISWVTVFLTEYAGPLFIYLLFYFRVPFIYGHKYDFTSSRHTVVHLACICHSFHYIKRLLETLFVHRFSHGTMPLRNIFKNCTYYWGFAAWMAYYINHPLYTPPTYGAQQVKLALAIFVICQLGNFSIHMALRDLRPAGSKTRKIPYPTKNPFTWLFLLVSCPNYTYEVGSWIGFAIMTQCLPVALFSLVGFTQMTIWAKGKHRSYLKEFRDYPPLRMPIIPFLL
partner: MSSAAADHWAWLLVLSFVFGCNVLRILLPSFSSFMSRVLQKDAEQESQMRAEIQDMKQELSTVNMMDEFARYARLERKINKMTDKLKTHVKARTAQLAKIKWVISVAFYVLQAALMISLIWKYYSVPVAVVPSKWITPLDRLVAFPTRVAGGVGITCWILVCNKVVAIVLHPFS
B3: Golgi SNAP receptor complex member 2 (Homo sapiens), O14653 (parent)
chain: B1 chain
partner: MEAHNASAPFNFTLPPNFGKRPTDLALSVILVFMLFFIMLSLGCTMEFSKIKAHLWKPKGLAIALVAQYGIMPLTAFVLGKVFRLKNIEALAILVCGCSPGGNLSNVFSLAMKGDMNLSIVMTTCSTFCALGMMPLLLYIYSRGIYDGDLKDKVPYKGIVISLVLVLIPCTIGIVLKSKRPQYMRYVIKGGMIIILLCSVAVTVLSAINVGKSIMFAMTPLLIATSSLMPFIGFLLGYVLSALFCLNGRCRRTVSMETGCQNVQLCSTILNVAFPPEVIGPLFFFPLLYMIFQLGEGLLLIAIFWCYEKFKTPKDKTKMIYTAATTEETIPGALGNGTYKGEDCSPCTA
B4: Golgi SNAP receptor complex member 2 (Homo sapiens), O14653 (parent)
chain: B1 chain
partner: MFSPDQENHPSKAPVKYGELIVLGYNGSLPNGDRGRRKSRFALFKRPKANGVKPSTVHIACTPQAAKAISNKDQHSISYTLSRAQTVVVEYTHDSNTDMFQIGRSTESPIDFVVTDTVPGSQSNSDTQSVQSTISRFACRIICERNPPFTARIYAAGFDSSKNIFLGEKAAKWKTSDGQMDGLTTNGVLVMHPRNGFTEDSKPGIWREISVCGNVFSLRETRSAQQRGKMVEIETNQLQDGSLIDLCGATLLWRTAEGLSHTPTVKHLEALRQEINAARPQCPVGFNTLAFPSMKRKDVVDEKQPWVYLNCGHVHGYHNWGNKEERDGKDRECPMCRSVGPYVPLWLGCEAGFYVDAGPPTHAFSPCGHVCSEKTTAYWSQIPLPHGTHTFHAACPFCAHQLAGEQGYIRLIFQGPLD
B5: Golgi SNAP receptor complex member 2 (Homo sapiens), O14653 (parent)
chain: B1 chain
partner: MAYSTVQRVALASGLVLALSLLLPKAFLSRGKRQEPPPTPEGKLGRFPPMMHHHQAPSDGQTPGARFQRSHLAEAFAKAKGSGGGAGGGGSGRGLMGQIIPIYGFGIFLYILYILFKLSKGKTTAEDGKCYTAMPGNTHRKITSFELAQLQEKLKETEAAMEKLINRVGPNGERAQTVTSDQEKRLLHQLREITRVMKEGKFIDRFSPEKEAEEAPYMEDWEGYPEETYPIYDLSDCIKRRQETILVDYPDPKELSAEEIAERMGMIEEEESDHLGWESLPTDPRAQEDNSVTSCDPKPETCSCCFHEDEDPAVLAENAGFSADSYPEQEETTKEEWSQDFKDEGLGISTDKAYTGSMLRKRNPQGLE
B6: Catenin alpha-3 (Homo sapiens), Q9UI47-2 (parent)
chain: MSAETPITLNIDPQDLQVQTFTVEKLLEPLIIQVTTLVNCPQNPSSRKKGRSKRASVLLASVEEATWNLLDKGEKIAQEATVLKDELTASLEEVRKESEALKVSAERFTDDPCFLPKREAVVQAARALLAAVTRLLILADMIDVMCLLQHVSAFQRTFESLKNVANKSDLQKTYQKLGKELENLDYLAFKRQQDLKSPNQRDEIAGARASLKENSPLLHSICSACLEHSDVASLKASKDTVCEEIQNALNVISNASQGIQNMTTPPEPQAATLGSALDELENLIVLNPLTVTEEEIRPSLEKRLEAIISGAALLADSSCTRDLHRERIIAECNAIRQALQDLLSEYMNNAGKKERSNTLNIALDNMCKKTRDLRRQLRKAIIDHVSDSFLDTTVPLLVLIEAAKNGREKEIKEYAAIFHEHTSRLVEVANLACSMSTNEDGIKIVKIAANHLETLCPQIINAALALAARPKSQAVKNTMEMYKRTWENHIHVLTEAVDDITSIDDFLAVSGMFLFF
partner: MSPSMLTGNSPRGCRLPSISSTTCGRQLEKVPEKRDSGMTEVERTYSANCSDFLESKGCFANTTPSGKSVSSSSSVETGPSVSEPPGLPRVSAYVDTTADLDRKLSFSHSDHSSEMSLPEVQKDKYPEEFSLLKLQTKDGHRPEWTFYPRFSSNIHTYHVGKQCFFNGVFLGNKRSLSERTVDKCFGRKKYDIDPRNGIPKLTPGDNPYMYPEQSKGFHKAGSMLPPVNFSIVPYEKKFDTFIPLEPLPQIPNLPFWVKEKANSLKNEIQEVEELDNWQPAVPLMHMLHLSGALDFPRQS
B7: Catenin alpha-3 (Homo sapiens), Q9UI47-2 (parent)
chain: B6 chain
partner: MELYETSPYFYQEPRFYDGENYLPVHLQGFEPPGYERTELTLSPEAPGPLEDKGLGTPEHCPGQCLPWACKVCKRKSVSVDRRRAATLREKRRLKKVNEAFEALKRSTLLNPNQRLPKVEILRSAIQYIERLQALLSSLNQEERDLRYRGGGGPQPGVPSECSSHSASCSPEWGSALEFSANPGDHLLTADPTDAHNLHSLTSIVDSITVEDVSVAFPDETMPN
B8: Ceroid-lipofuscinosis neuronal protein 6 (Homo sapiens), Q9NWW5 (parent)
chain: MEATRRRQHLGATGGPGAQLGASFLQARHGSVSADEAARTAPFHLDLWFYFTLQNWVLDFGRPIAMLVFPLEWFPLNKPSVGDYFHMAYNVITPFLLLKLIERSPRTLPRSITYVSIIIFIMGASIHLVGDSVNHRLLFSGYQHHLSVRENPIIKNLKPETLIDSFELLYYYDEYLGHCMWYIPFFLILFMYFSGCFTASKAESLIPGPALLLVAPSGLYYWYLVTEGQIFILFIFTFFAMLALVLHQKRKRLFLDSNGLFLFSSFALTLLLVALWVAWLWNDPVLRKKYPGVIYVPEPWAFYTLHVSSRH
partner: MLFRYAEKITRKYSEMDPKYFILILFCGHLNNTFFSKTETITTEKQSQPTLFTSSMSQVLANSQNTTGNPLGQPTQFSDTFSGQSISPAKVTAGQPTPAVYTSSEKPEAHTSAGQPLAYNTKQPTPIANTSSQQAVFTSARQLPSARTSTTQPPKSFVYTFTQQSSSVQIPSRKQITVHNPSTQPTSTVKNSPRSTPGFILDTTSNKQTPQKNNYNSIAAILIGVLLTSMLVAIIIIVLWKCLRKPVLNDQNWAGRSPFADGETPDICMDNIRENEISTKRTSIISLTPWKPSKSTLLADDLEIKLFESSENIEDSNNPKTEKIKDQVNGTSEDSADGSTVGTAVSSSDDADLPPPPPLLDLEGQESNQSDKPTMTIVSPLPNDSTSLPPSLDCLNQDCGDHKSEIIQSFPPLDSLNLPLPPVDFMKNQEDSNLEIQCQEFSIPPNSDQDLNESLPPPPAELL

Variants of: B1
Details: with blcap_human BLCAP

| Variant | effect of a mutation on the interaction |
| --- | --- |
| G144W | with no effect |

Variants of: B2
Details: with get1_human GET1, O00258

| Variant | effect of a mutation on the interaction |
| --- | --- |
| P182L | disrupting interaction strength |

Variants of: B3
Details: with ntcp_human SLC10A1, Q14973

| Variant | effect of a mutation on the interaction |
| --- | --- |
| G144W | with no effect |

Variants of: B4
Details: with peli1_human PELI1, Q96FA3

| Variant | effect of a mutation on the interaction |
| --- | --- |
| G144W | disrupting interaction strength |

Variants of: B5
Details: with RIC3, Q7Z5B4-5

| Variant | effect of a mutation on the interaction |
| --- | --- |
| G144W | disrupting interaction strength |

Variants of: B6
Details: with spas1_human SPATS1, Q496A3

| Variant | effect of a mutation on the interaction |
| --- | --- |
| V94D | disrupting interaction strength |

Variants of: B7
Details: with myog_human MYOG

| Variant | effect of a mutation on the interaction |
| --- | --- |
| V94D | disrupting interaction strength |

Variants of: B8
Details: with EVI2B

| Variant | effect of a mutation on the interaction |
| --- | --- |
| L47F | with no effect |
| G123D | with no effect |
